Results from paper doi:10.1101/2025.09.08.674988.
Read-outs that look alike come from different tables or passages of the source.

B1: Synthetic RNA (structured_RNA)
RNA: AGGGUUUUUUUUUUUAUUAUUUAUUCUUUAUUUUUCUUGCGUAGUUUUCUACG
B2: 5'UTR RNA (ssRNA)
RNA: AUACUAACGCCAUGGCUAGGCGCUUUCUGCGUGAAGACAGUAGUUCCUCACAGGGGAGUGAUUCAUGGCGGAGUGUCGCCCCU

Legend:
[1] = target: T1, NS5B(Δ21)-FlAsH-His (RNA-dependent RNA polymerase) (Hepatitis C virus genotype 2a, UniProt Q99IB8 2443-3012); test: EMSA
[2] = target: T1, NS5B(Δ21)-FlAsH-His (RNA-dependent RNA …); test: EMSA; remark: listed apart in the source

| Binder | binding result [1] | binding result [2] |
| --- | --- | --- |
| B1 | binds |  |
| B2 |  | binds |
